Target: purified recombinant myristoylated HIV-1 matrix protein (myrMA) (HIV-1 NL4-3)

HIV-1 spacer peptide 2 (SP2), added in vitro
share of sub-images contributing to mature-like MA lattice classes on lipid monolayers, with SP2 (7% mature-like and 7% immature-like without SP2): 47%

Reference: article doi:10.1101/2024.11.06.622200
